Reference: publication PMC11257031 (Archives of biochemistry and biophysics, 2023)

Target: the molecule itself
Assay: SEC

B1: Zymomonas mobilis pyruvate kinase (enzyme, UniProt O86020 1-475, looked up)
chain: MTEGLFPRGRKVRVVSTLGPASSTAEQIRDRFLAGADVFRINMSHGTHDEKKVIVDNIRALEKEFNRPTTILFDLQGPKLRVGDFKEGKVQLKEGQTFTFDQDPTLGDETRVNLPHPEIFKALDKGHRLLLDDGKIVVRCVESSPTKIVTRVEVPGPLSDHKGFNVPDVVIPLAALTPKDRKDLDFALKEKADWVALSFVQRVEDVIEAKELIKGRAPLLVKLEKPAAIENLESILAATDAVMVARGDLGVECLPESVPPTQKRIVERSRQLGKPVVVATAMLESMIKAPAPTRAEVSDVANAIYEGADGIMLSAESAAGDWPHEAVNMMHRIASYVENAPGYIERVRFTPTPAEPTTVDALAENASKTAETVGAKAIIVFTETGKTAQRVSRARPVAPILSLTPDAEVARRLGLVWGAQPVQVSTVKTLDEAKKLAAETAKKYGFAKAGDKLVVVAGEPFGKAGTTNIVDVIEA
stoichiometry N: 2
